Assay results taken from the supplement of paper PMC12636428.

System: Saccharomyces cerevisiae
Test: transcriptional activation domain activity (GFP:mCherry ratio, weighted mean of sorted bins, harmonized to initial dataset scale) (arbitrary fluorescence ratio units); higher = stronger transcriptional activation
Details: beta-estradiol 1 µM; induction time 4 h
Outline: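 Values are activation activity, found as the read-weighted mean of bin median fluorescence, averaged across barcodes and then mapped linearly onto the initial dataset scale. Barcoded protein tiles fused to an estradiol-inducible synthetic transcription factor were integrated at the URA3 locus of GFP-reporter yeast diploids. Cells were induced for 4 hours at 30 °C with 1 uM beta-estradiol in SC, sorted into 8 bins by GFP:mCherry ratio, and barcode-sequenced, with tiles under 50 reads discarded.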

Sequence | transcriptional activation domain activity
PYLSRLGEKNILADLMEFYRCKESWSLQSGLVFIRRIILQQVPIDVRILCAFL | 35500
FVGPQLCRDDAWLHTSIQFTRNVGITRNLLRMLPAVVRPIVARLLPSYWRIYS | 41700
SGEATATPEKSKTPRKRKTKAEGDSADNGDADGSPKKKAGGRKKKADVVKEEM | 23600
KISAEYMVQYKGGLIGKHFKSLSQIMAFVVYDLVPKDILDAWTIIGRLVVLLW | 75900
EAGREAGKAGREEKQVKQDEERTAEDTETGKHEEDRNGEQKQRDRKTRRGKIR | 25300
LIGCCVVYSLLSSFLLIFQCIPVSLAWNRWDGEHHGHCTNLVPLTWITALLNV | 58900
PFIIVTGLVVFVYYSYLDRIFLVLLRKLHRKALAIAYFVPLNIFIFLFIISYC | 63700
MLRLLFWYLLIFVCLFCSSSPSYLSIFCLFFLCLIFIPSSSYILLPFLFLTLY | 37500
PIARESSSLFLANTPYLSDFLTMGSSYGGSGGFAKSITADPSLDYFNYKNHSH | 68600
MLQLWRLCVDNLLMAFSNYFPLVLPHATRFYLFYFWLILRGLQLTRLFCVCFM | 85300
MNLSRVFLKVRAIAFSCISLLSFLWIILLCLMLYYRWDESDHSEHSLLIILLL | 45100
RNLAAAAAGATAVGLAAKAIHDHRARSRSRSSSASGSDRGHRHNAVLGLGAAG | 42100
FYGDISLSRRGFLIASMFILRLFRAISYLAFNAILVDMPTRQAILRFFHYFGR | 50200
TYAIWNCNKWILCILVVVASGVYISSAVILHDIFQSYEYPVLSLPTKMYCLPF | 18700
IFTELYFIMSSIWFSKVYYMFGFLFVCFLLMTLTCAAVTILLVYFLLCAENYH | 62000
MASLRNHAEQLNAAVYRNYKKDRKVGEGAYAVVYLGTQLSTKKVVAIKKIKVG | 49800
LIVIRIVNPVIMYFFISCFYSLLSVAFQVPFNRYYGSSGFVIYWMMSWLAMCA | 55900
NGQRFVQLLCNECGTVLELSVLLASVYLSLNMGDLVRLQPGCLYESQKRQWGP | 16300
TRSFNIMLGMVTFWGVFSLFAIAFQCGLPAPWVFIPSECPTGGYLYYPVIILN | 56000
SLTREFNDIGLLTELHYVQGIETLIKIGTRFSMVAALVVYRNFRWHLSSAIPP | 48200
VPPELYVCAEIVRMVMGYVEGGFVKSSSNHKIRPEVLLIACLIVSIKICYSME | 61300

Sequence | transcriptional activation domain activity
LAHCGCSQSLLLLLFSFPYRYYIILFHYWVLRGGLTIPIYRVLCGFFLPSFVL | 62200
IKDIEINDLRNRYTLTKGAVQKKGPRLVRPLRISSSPECTEPRPSPCLSVSLS | 45600
METTVSGQSSQPPAANDDQEPTKKRKRDKYVGKACGPCKRRKIRCGGGVPCES | 36300
MYVCVYIFGCYLFGFMIFVYFFPIYFFNSLFSCSYFFFLLIYSFILFIYSVAA | 44800
MWVINRAFLEFYFIFCIVFTVHLVCFCFFWLIFLFCLLHASFLLCDFPFFFYY | 41100
ESGCGREDMTVKSGIVFSFYFFCCLFFFLLSLFVCFPPPFFFILLFPIFIHLY | 18900
MPMDILVFYIPHRIKFCFFFFYLFIFFIFLPSYLIFYCTVTSAFLLFLYLYYL | 26000
MPSFFLFFLFFFLLSQCFLVLCHVCIGLVSFSSLSFFFFFPYSTFFSPLPFFL | 61700
MISLFFFLFLYHIYVFLLLLLLYFLPSLPYPPIYTLYIVSLIIPHLVYLLQNS | 31400
FSTSLTSWSTSLNLLFFYMTWSTLVLSHSPLRIELIGITAIRTVLWLIPSLVF | 63100
KNNDATIDNELTQILNEYNMNFNDNLGTSTSGKNKSACPSSFDANAMTKINPS | 51800
ASTKGRADVRGRSGKAAPQKGRGKARVGSKRAPHFRGGGIAFGPRPRDFSTEL | 28300
GRHPEQHGVRYSLSKDSGATIVDIYLAHLLECLIPVVGRLKSVVSNLGTMRQT | 78200
MLLVSLVRVVHGFTVQQYIYTGQWLLYISLIFFLLHFPLVMKPITFLTILCLA | 55100
SSSEDESDEEDEEGLGSDVEIHDQAEPAEDVPAGEVSRRFAVVNLDWDHVRAV | 32200
VYTDLIRIIGDTKPILLDNYHNAMRRTMSVVIGFRVFYYHNEWHRAKGFIRKA | 38400
RKLLIALDMRLQNIRSNWKEHHSLTVVIQLTLRLLSLGLSSEVVAGCLDLLKS | 64700
PGYVVQYKNSLIGKHFKMLQQLGVFYLHDLCAPLILDLWKATGELGAYLWFPE | 40900
PVNFIFVKLAKVFPLDYLFMVLLIIYFFLVTLTGIITLGVRFFWITLFRIRRG | 19400
MVINGLPWLVALSIPFTFLASLTHSSWHPLLLRSHSTWRLYWWLVLVLRMHMT | 41500
MTESHRPNQSLGLDDAAGGRKPAKRKAHRKSRTGCRQCRASRVKCDENKPSCS | 41000

Sequence | transcriptional activation domain activity
GGEDALGRAAEEEGVRSGGLSSEQQDREEARGEARDRQHRVACFGGRRECAGG | 48500
MDDALSVKSNDDGTYDVAVHIADVSYFVKPNTALDRDARKRATSVYLIQRAVP | 15900
EEGASQRANQRGKGEEGASQTANQRGKGEEGNQRRKGRKGAKGGRGRKGAKGG | 28500
IYETVNTITELSCLLPGGPWFPHARELWWYASEPAGVRYVAVLLSPTLRSLRL | 69700
MSYCIDFPVISSFPAASFYFIFMGTLQDHLPFSLLVYSTLIPFFFFSFLFLSF | 41600
ELLESTEREGGRGLRPAKAEVREGGLDGVVGGLEDLRGGRVSGRKLVYRVGTE | 35700
RRRRAKSRDPERVRERSERRASRSPEKKDKSARSKSRLGRLAAGAAAAGAAAI | 42800
QAAAPAEKPATAAAGEAEKDGAAARGASTRGRGRGRGRGGRGGATAARRPRAD | 46200
LHLMLQKLCFAATLRIATLPDKHPLHPFVKRVYRYLFLKSHRAPRHNLFEAFQ | 55000
MVCTLDHFQFVGLIYFAFFFIVISYFIDSVIFILFFVYFPFFVFLLLFVIAFY | 54800
GVERNHLSVFRPVSFSFSSWFMLLLFFCFRGVELVILFPDCSWFLCIPLFYSF | 67700
EESGGESGGAADKNARVLSTALELALIVLDTCVELDGGRSLSLEHTALLLAAG | 69300
YFWVLGAIPYFVFHSAFCLLWSLFFWFSCWYLSFKILLFRCFFFLFYYSMPSQ | 55200
EVGAKTFLAGLAGSGGSGGVYRCVIDKSRPAVWRLRKNDAPLSSFAAALLVSN | 72500
MLHSISTYLIFPLLYLFILSFNIYHFFFFSLKIITILIFLHTFVLLLFSWRKY | 60400
DDENEGSDTEAEAPAEKPKRGRKKAAPKEGADGEEEAPAAKKAAPRGRGKKAA | 6980
SDEEGEMADRLADDDLDVSVLKTAKELAETAALYRIRNRRPTAHLVLPRVVEG | 40200
MAWAYGSCLCRCCFFFASLWQFLFFVFGFLPFWPFFGFLLFISVVLPPSSLFL | 46100
MFLFIYFVCVCVFSLSLLWDGVSGWVLFVLDWIGLIGGMCVWAYIIIFYEFLV | 63200
